Target: murine GPC3-his protein (Sino Biological, Cat. No. 50989-M08B) (murine) (UniProt Q8CFZ4)
Assay: ELISA, coated murine GPC3-His

Sequence of murine GPC3-his protein (Sino Biological, Cat. No. 50989-M08B) (murine) (Q8CFZ4 25-558 limits assumed): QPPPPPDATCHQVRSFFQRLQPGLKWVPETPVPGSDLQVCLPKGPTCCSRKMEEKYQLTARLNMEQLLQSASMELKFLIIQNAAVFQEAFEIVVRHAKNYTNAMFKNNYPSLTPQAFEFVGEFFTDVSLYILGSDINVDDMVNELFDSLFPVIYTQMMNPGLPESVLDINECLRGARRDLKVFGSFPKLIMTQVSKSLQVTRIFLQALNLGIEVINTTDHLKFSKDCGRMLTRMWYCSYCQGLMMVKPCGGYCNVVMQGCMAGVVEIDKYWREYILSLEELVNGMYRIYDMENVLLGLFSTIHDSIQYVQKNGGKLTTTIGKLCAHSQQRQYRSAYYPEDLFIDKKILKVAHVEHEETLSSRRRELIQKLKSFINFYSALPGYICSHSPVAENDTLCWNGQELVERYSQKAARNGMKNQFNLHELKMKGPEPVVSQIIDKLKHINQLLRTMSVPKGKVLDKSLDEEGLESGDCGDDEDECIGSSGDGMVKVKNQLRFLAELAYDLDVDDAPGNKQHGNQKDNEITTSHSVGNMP

| OD450 at 0.0001 nM antibody [OD450 nm] | OD450 at 0.001 nM antibody [OD450 nm] | OD450 at 0.01 nM antibody [OD450 nm] | OD450 at 0.1 nM antibody [OD450 nm] | OD450 at 1 nM antibody [OD450 nm] | OD450 at 10 nM antibody [OD450 nm] | OD450 at 100 nM antibody [OD450 nm] | Binder |
| --- | --- | --- | --- | --- | --- | --- | --- |
| 0.05 | 0.06 | 0.06 | 0.58 | 0.41 | 0.86 | 0.52 | F1.73.9 human-murine chimeric antibody (antibody, human IgG1, kappa, V domains shown) VH: QVQLKQSGAELVRPGASVKLSCKASGYTFTDYYINWVKQRPGQGLEWIARIYPGSGNTYYNEKFKGKATLTAEKSSSTAYMQFSSLTSEDSAVYFCACSTYYTMDYWGQGTSVTVSS VL: QIVLTQSPAIMSASLGERVTMTCTASSGVSSSYLHWYQQKPGSSPKLWIYTTSNLASGVPARFSGSGSGTSYSLTISSMEAEDAATYYCHQYHRSPYTFGGGTKLEIKR |
| 0.05 | 0.05 | 0.07 | 0.34 | 0.4 | 0.7 | 0.6 | F1.115.8 human-murine chimeric antibody (antibody, human IgG1, kappa, V domains shown) VH: EVQLQQSGPELVKPGASVKMSCKASGYTFTEYYMHWVKQSHGKSLEWIGYIYPNNGGNGYNQKFKGKATLTVDKSSSTAYMGLRSLTSEDSAVYYCVRGYYSNWYFDVWGTGTTVTVSS VL: DVLMTQTPLSLPVSLGDQASISCRSSQSIVHSNGKTYLEWYLQKPGQSPKLLIYKVSNRFSGVPDRFSGSGSGTDFTLKISRVEAEDLGVYYCFQGSHVPFTFGSGTKLEIKR |
| 0.05 | 0.07 | 0.16 | 0.72 | 0.76 | 0.8 | 0.54 | F1.120.16 human-murine chimeric antibody (antibody, human IgG1, kappa, V domains shown) VH: EFQLQQSGPELVKPGASVKISCKASGYSFTDYNMNWVKQSNGKSLEWIGLIHPKFSVTSYNRKFKGKATLTVDQSSSTAYMQLNSLTSEDSAVYYCARWAGDYFDYWGQGTTLTVSS VL: DIVLTQSPATLSVTPGDSVSLSCRASQSISNNLHWYQQKSHESPRLLIKYASQSISGIPSRFSGSGSGTDFTLTINSVETEDFGMYFCQQSNSWPQTFGGGTKLEIKR |
